Data taken from the supplement of paper PMC10126150.
± gives the standard deviation of the averaged measurements.

System: ATP
Experiment: switch fluorescence ratio, 500 uM ATP over buffer (Cy3 cluster intensity, sum of 5 cycles each) (fold (ratio)); higher = stronger signal-on switching upon ATP binding; sequences stand for … in TCGTCGGCAGCGTCAGATGTGTATAAGAGACAGTTTTTTTTTTTTTTTTTTTTTTTTT…TC
Conditions: aptamer strand: ATP DNA aptamer (quencher-CACCTGGGGGAGTATTGCGGAGGAAGG + anchor), 100 nM annealed; ATP concentration: 500 uM
Procedure, shortened: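 Clusters carrying Cy3-labelled switching strands on a modified Illumina MiSeq flow-cell were annealed to 100 nM quencher-labelled ATP aptamer and imaged in selection buffer. They were imaged again after 15 min with 500 uM ATP at 22 °C, over five buffer/ATP cycles with NaOH stripping and re-annealing in between. For each cluster, the fluorescence ratio is the summed Cy3 intensity of the target cycles divided by that of the buffer cycles, averaged per switch-domain sequence. Clusters outside 100-1000 RFU were left out.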
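Note: ATP exposure 15 min at 22 °C before imaging.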

Sequence	switch fluorescence ratio
GTAGGGGGTT	0.9951 ± 0.0041
GGCAGGGCTG	0.974 ± 0.051
GGTGTGTCTC	1.03 ± 0.065
GGTGGAAGCT	1.01 ± 0.025
TGAGTATAGT	1.01 ± 0.035
TTTTCAAGTC	1.05 ± 0.15
CTATTGTGGA	0.999 ± 0.019
CGGGGTCAAC	1.24 ± 0.39
CGTTTTCTGT	0.978 ± 0.024
GGGGCGGAGG	0.987 ± 0.047
CAGTAATGTT	0.994 ± 0.033
GGGCTTATGG	0.975 ± 0.054
GACGCGGGTC	1.13 ± 0.026
CGATGATTGT	1.03 ± 0.059
TTAAGGTTGG	0.993 ± 0.031
TTTTAGTACT	0.99 ± 0.036
ATGGGAAGTC	0.992 ± 0.024
GGGTTCGTGG	0.997 ± 0.031
GCTTCCGGCC	1.15 ± 0.054
TTTTAGGGTA	1.03 ± 0.017
AGCAGGGGAC	1.18 ± 0.23
TTTTTCCTTG	1.04 ± 0.018
TTGATGCTAT	1.32 ± 0.43
ATTGCGAATT	1.02 ± 0.022
TATGAGGAAC	1.09 ± 0.14
TAGCGTATGA	1.03 ± 0.014

Sequence	switch fluorescence ratio
AGTTATCGAA	1.009 ± 0.0036
TTCTACGGTC	1.01 ± 0.03
GTTTCAAGCG	1.02 ± 0.025
ATAGCTTGGC	1.011 ± 0.0047
TTCTTACTTT	1.48 ± 0.64
ATTATATGGG	1.016 ± 0.0029
TGTTAGAACG	1.02 ± 0.015
ACTGGTCAGC	1 ± 0.029
TCTAAATGTT	0.985 ± 0.03
CATGGGAATT	0.982 ± 0.032
CAAGCATTTT	1.011 ± 0.0016
TAAGGGGGT	1 ± 0.031
CCTATAAAGG	1.03 ± 0.04
ACCTGGTGGG	0.984 ± 0.028
AATTTTGTGG	1.03 ± 0.014
GAACATCTCG	0.993 ± 0.035
AGAAGTTTTA	1.01 ± 0.075
TTTTGCATTG	1.07 ± 0.058
AACTACAACG	1.05 ± 0.018
TACGCGATTT	1.09 ± 0.08
TCCTAGGTCT	1.009 ± 0.0029
GGCTCAGGTA	1.04 ± 0.013
TTCCTACAAG	1.06 ± 0.014
TCGATAGGGG	0.98 ± 0.054
GGCTGCCGGG	1.02 ± 0.025
TTCGAATGGT	0.9724 ± 0.0062

Sequence	switch fluorescence ratio
AGCATCATTT	0.971 ± 0.024
AATTGGTTCG	0.984 ± 0.012
TTCGGCAGTG	1.022 ± 0.0079
CTAAATATAT	1.03 ± 0.013
ATAAGGTCAA	0.995 ± 0.047
CGCTGCACAT	2.21 ± 0.045
CGGTTTTATT	0.982 ± 0.028
TATGGGGTTG	1.03 ± 0.12
ATAGAAAGGG	1.02 ± 0.063
TGGTAGGGTG	1.01 ± 0.034
TGATATTGTG	0.994 ± 0.024
AAGAGTGCGG	0.9742 ± 0.0074
TATATTTACC	1.04 ± 0.044
AGGGATTGC	0.973 ± 0.027
GTTTGGGGAT	0.972 ± 0.022
ATAAAATAAA	0.976 ± 0.031
GAAGGCGTTT	0.9778 ± 0.0032
GGGGTTAGCG	0.991 ± 0.021
ATTGACTCTT	1.003 ± 0.0074
GTTGTTTTCA	0.993 ± 0.024
GGATCTTAGT	0.996 ± 0.013
TGGGTTAGTA	0.984 ± 0.015
TTCAAAGACT	1.02 ± 0.049
ATTAAACCAG	1.1 ± 0.11
